Where a chain is given by its changes, count along the chain named. In names and notes the source's numbering stands. No end group written: not given here. *: point of attachment. 4‑(fluorosulfonyl)phenylacetyl = O=C(Cc1ccc(S(=O)(=O)F)cc1)*; Benzoyl(3-SO2F) = O=C(c1cccc(S(=O)(=O)F)c1)*; Benzoyl(4-SO2F) = O=C(c1ccc(S(=O)(=O)F)cc1)*
T1: CsgG (preformed nonameric CsgG pore complexes of Example 2) (Escherichia coli, UniProt P0AEA2 16-277)
T1 construct: Tyr196 fits that numbering; also called CsgG nonameric channel
T1 sequence: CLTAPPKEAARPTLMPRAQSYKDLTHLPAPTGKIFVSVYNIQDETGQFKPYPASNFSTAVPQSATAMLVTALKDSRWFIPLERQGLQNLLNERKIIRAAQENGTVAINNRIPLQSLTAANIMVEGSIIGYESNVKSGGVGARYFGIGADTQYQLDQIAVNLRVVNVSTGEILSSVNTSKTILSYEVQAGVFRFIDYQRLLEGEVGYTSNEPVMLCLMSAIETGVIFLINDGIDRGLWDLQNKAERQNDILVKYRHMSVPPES

T2: CsgG-F56Q pore (ONLP20134) (Escherichia coli, UniProt P0AEA2 16-277)
T2 construct: Oligomeric pore purified from E. coli; also called CsgG-WT-F56Q; CsgG-only pore control
T2 sequence: T1 sequence with F56Q

B1: CsgF-K30-PARA-SO2F-del(S31-F119) (peptide)
peptide: GTMTFQFRNPNFGGNPNNGAFLLNSAQAQK(Benzoyl(4-SO2F))-NH2
modifications: N-terminus assumed
SMILES: CSCC[C@H](NC(=O)[C@@H](NC(=O)CN)[C@@H](C)O)C(=O)N[C@H](C(=O)N[C@@H](Cc1ccccc1)C(=O)N[C@@H](CCC(N)=O)C(=O)N[C@@H](Cc1ccccc1)C(=O)N[C@@H](CCCNC(=N)N)C(=O)N[C@@H](CC(N)=O)C(=O)N1CCC[C@H]1C(=O)N[C@@H](CC(N)=O)C(=O)N[C@@H](Cc1ccccc1)C(=O)NCC(=O)NCC(=O)N[C@@H](CC(N)=O)C(=O)N1CCC[C@H]1C(=O)N[C@@H](CC(N)=O)C(=O)N[C@@H](CC(N)=O)C(=O)NCC(=O)N[C@@H](C)C(=O)N[C@@H](Cc1ccccc1)C(=O)N[C@@H](CC(C)C)C(=O)N[C@@H](CC(C)C)C(=O)N[C@@H](CC(N)=O)C(=O)N[C@@H](CO)C(=O)N[C@@H](C)C(=O)N[C@@H](CCC(N)=O)C(=O)N[C@@H](C)C(=O)N[C@@H](CCC(N)=O)C(=O)N[C@@H](CCCCNC(=O)c1ccc(S(=O)(=O)F)cc1)C(N)=O)[C@@H](C)O
notes: Synthetic peptide: WT CsgF(1-29) with a modified Lys at position 30; also called 4-SO2F-CsgF; CsgF-WT-K30-PARA-SO2F-del(S31-F119)
B2: CsgF-K30-CH2-PH-P-SO2F-del(S31-F119) (peptide)
peptide: GTMTFQFRNPNFGGNPNNGAFLLNSAQAQK(4‑(fluorosulfonyl)phenylacetyl)-NH2
modifications: N-terminus assumed
SMILES: CSCC[C@H](NC(=O)[C@@H](NC(=O)CN)[C@@H](C)O)C(=O)N[C@H](C(=O)N[C@@H](Cc1ccccc1)C(=O)N[C@@H](CCC(N)=O)C(=O)N[C@@H](Cc1ccccc1)C(=O)N[C@@H](CCCNC(=N)N)C(=O)N[C@@H](CC(N)=O)C(=O)N1CCC[C@H]1C(=O)N[C@@H](CC(N)=O)C(=O)N[C@@H](Cc1ccccc1)C(=O)NCC(=O)NCC(=O)N[C@@H](CC(N)=O)C(=O)N1CCC[C@H]1C(=O)N[C@@H](CC(N)=O)C(=O)N[C@@H](CC(N)=O)C(=O)NCC(=O)N[C@@H](C)C(=O)N[C@@H](Cc1ccccc1)C(=O)N[C@@H](CC(C)C)C(=O)N[C@@H](CC(C)C)C(=O)N[C@@H](CC(N)=O)C(=O)N[C@@H](CO)C(=O)N[C@@H](C)C(=O)N[C@@H](CCC(N)=O)C(=O)N[C@@H](C)C(=O)N[C@@H](CCC(N)=O)C(=O)N[C@@H](CCCCNC(=O)Cc1ccc(S(=O)(=O)F)cc1)C(N)=O)[C@@H](C)O
notes: Synthetic peptide: WT CsgF(1-29) with a modified Lys at position 30; also called 4-CH2SO2F-CsgF; CsgF-WT-K30-CH2PH-p-SO2F-del(S31-F119)
B3: CsgF-K30-META-SO2F-del(S31-F119) (peptide)
peptide: GTMTFQFRNPNFGGNPNNGAFLLNSAQAQK(Benzoyl(3-SO2F))-NH2
modifications: N-terminus assumed
SMILES: CSCC[C@H](NC(=O)[C@@H](NC(=O)CN)[C@@H](C)O)C(=O)N[C@H](C(=O)N[C@@H](Cc1ccccc1)C(=O)N[C@@H](CCC(N)=O)C(=O)N[C@@H](Cc1ccccc1)C(=O)N[C@@H](CCCNC(=N)N)C(=O)N[C@@H](CC(N)=O)C(=O)N1CCC[C@H]1C(=O)N[C@@H](CC(N)=O)C(=O)N[C@@H](Cc1ccccc1)C(=O)NCC(=O)NCC(=O)N[C@@H](CC(N)=O)C(=O)N1CCC[C@H]1C(=O)N[C@@H](CC(N)=O)C(=O)N[C@@H](CC(N)=O)C(=O)NCC(=O)N[C@@H](C)C(=O)N[C@@H](Cc1ccccc1)C(=O)N[C@@H](CC(C)C)C(=O)N[C@@H](CC(C)C)C(=O)N[C@@H](CC(N)=O)C(=O)N[C@@H](CO)C(=O)N[C@@H](C)C(=O)N[C@@H](CCC(N)=O)C(=O)N[C@@H](C)C(=O)N[C@@H](CCC(N)=O)C(=O)N[C@@H](CCCCNC(=O)c1cccc(S(=O)(=O)F)c1)C(N)=O)[C@@H](C)O
notes: Synthetic peptide: WT CsgF(1-29) with a modified Lys at position 30; also called 3-SO2F-CsgF; CsgF-WT-K30-META-SO2F-del(S31-F119)
B4: CsgF-del(S31-F119) (peptide)
peptide: GTMTFQFRNPNFGGNPNNGAFLLNSAQAQN
notes: Chemically synthesised peptide; In complex ONLP20783 with CsgG-F56Q; also called CsgF-WT-del(S31-F119); del(S31-F119) CsgF peptide

Legend:
[1] = biological target: T1, CsgG (preformed nonameric CsgG pore …); experiment: insertion of complexes into bilayers; told of the covalent SuTide complexes as a group
[2] = biological target: T1, CsgG (preformed nonameric CsgG pore …); experiment: SDS-PAGE time course of the reaction with CsgG
[3] = biological target: T2, CsgG-F56Q pore (ONLP20134); experiment: single-channel current traces, MinION flow cell, -180 mV

| Binder | fold increase in the proportion of bilayer embedded stable complexes over the non-covalent complex [1] [fold] | first order rate constant k1 of covalent reaction [2] [h⁻¹] | halftime (t1/2) of covalent complex formation [2] [h] | binding result [3] |
| --- | --- | --- | --- | --- |
| B1 | 2 | ~0.46 | 1.5 |  |
| B2 | 2 | ~0.17 | 4 |  |
| B3 | 2 | ~1 | 0.66 |  |
| B4 |  |  |  | binds |

From US20260042806A1 (OXFORD NANOPORE TECHNOLOGIES, published 2026)
